Several values for one entry are separate records, joined by “and”; a condition that tells them apart may be missing. Equal values may be shown once.
T1: DmOrc1 IDR delta2 (Drosophila melanogaster, UniProt O16810 187-549, del247-306)
T1 sequence: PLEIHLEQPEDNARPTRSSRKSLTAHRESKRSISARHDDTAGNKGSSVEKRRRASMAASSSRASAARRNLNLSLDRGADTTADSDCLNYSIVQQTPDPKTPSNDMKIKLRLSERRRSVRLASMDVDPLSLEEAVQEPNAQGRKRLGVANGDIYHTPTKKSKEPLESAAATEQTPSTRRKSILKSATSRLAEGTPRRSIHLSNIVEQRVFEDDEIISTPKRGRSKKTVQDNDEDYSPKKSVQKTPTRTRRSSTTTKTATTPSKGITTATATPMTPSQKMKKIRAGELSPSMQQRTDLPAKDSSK

T2: DmOrc1 IDR delta3 (Drosophila melanogaster, UniProt O16810 187-549, del307-366)
T2 sequence: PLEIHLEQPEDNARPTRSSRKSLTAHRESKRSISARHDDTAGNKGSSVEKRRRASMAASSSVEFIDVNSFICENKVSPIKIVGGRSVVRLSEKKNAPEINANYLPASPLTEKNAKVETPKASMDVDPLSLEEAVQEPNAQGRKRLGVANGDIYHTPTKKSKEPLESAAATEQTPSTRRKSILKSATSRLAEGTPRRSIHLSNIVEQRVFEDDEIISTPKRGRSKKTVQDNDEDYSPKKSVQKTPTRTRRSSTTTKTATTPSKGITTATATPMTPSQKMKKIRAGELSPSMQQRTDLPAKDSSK

T3: DmOrc1 IDR delta1 (Drosophila melanogaster, UniProt O16810 247-549, del187-246)
T3 sequence: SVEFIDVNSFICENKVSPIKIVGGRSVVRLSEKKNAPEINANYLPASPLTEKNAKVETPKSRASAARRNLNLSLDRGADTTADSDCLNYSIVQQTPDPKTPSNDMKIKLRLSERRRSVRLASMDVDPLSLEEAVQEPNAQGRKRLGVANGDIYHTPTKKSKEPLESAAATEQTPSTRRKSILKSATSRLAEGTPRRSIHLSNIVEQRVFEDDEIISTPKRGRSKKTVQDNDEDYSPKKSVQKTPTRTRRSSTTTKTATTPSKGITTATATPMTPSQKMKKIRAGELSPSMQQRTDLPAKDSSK

T4: DmOrc1 IDR delta5 (Drosophila melanogaster, UniProt O16810 187-549, del427-486)
T4 sequence: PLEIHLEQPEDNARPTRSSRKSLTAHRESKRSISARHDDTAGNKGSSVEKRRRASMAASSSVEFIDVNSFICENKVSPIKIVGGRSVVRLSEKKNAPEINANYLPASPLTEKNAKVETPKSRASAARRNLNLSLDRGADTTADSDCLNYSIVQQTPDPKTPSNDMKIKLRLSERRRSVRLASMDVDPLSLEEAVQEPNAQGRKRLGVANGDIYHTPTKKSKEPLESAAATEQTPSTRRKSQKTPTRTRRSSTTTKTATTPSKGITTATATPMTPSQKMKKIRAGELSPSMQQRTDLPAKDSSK

T5: DmOrc1 IDR delta6 (Drosophila melanogaster, UniProt O16810 187-486, del487-549)
T5 sequence: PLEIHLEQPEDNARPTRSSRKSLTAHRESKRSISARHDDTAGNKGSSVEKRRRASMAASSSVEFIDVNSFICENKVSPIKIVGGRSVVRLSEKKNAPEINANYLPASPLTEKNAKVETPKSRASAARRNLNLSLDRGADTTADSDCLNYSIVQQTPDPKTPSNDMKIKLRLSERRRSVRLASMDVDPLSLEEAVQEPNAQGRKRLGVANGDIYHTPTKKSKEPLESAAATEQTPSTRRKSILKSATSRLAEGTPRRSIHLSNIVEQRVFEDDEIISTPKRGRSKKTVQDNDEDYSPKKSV

T6: DmOrc1 IDR delta4 (Drosophila melanogaster, UniProt O16810 187-549, del367-426)
T6 sequence: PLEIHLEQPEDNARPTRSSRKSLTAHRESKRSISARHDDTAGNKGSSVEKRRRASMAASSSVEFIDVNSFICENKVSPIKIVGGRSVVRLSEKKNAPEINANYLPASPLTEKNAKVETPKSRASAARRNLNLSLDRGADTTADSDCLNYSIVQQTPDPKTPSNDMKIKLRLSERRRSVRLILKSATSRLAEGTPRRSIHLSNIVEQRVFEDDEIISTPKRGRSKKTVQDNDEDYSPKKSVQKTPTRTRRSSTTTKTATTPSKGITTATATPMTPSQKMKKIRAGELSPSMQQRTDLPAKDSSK

T7: DmOrc1 IDR delta BP (Drosophila melanogaster, UniProt O16810 187-549, del520-533)
T7 sequence: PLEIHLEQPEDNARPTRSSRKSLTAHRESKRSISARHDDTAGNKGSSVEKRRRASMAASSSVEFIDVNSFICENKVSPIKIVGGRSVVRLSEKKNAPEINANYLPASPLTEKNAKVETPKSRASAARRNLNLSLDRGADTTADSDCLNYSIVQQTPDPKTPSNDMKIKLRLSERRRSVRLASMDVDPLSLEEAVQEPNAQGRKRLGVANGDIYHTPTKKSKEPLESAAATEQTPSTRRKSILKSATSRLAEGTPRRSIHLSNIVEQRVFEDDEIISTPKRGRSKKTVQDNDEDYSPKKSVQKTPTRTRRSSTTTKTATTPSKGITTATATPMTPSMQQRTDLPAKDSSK

T8: DmOrc1 IDR (Drosophila melanogaster, UniProt O16810 187-549)
T8 sequence: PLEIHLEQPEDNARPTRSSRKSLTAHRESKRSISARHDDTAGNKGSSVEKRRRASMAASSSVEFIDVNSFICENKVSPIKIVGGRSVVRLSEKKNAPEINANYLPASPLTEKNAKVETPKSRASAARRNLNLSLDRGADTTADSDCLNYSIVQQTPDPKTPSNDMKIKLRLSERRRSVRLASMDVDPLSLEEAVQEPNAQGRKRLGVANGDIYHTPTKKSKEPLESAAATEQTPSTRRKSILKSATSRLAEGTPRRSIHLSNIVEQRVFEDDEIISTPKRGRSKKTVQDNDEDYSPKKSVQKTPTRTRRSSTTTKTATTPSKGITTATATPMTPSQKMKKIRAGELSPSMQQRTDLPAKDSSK

T9: DmOrc1 IDR delta P (Drosophila melanogaster, UniProt O16810 187-549, S263A;S293A;T304A;T341A;T346A;T401A;T419A;T439A;T463A;S481A;T489A;T505A;T516A;T5 …)
T9 sequence: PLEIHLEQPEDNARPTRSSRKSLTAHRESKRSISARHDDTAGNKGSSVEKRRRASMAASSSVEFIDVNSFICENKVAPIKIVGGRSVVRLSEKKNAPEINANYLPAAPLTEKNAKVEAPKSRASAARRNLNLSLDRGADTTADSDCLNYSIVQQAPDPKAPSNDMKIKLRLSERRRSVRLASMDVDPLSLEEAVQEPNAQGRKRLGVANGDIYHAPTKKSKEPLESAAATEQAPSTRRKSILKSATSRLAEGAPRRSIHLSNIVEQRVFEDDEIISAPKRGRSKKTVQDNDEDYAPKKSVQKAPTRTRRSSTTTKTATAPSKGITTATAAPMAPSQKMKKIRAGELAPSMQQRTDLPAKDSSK


How the values were obtained:
[1] = target: T10, DmORC holocomplex (Orc1-6) (Drosophila melanogaster) (UniProt O16810+Q24168+Q24169+Q9Y1B2); test: fluorescence polarization; settings: EMSA: 50 mM HEPES pH 7.5, 150 mM K-glutamate, 10% glycerol, 1 mM BME, 2 nM DNA, RT 20 min, 1% agarose; FP: same with 150 or 300 mM K-glutamate, 5 mM MgOAc …
T10 sequence (O16810 whole entry, chain 1 of 4): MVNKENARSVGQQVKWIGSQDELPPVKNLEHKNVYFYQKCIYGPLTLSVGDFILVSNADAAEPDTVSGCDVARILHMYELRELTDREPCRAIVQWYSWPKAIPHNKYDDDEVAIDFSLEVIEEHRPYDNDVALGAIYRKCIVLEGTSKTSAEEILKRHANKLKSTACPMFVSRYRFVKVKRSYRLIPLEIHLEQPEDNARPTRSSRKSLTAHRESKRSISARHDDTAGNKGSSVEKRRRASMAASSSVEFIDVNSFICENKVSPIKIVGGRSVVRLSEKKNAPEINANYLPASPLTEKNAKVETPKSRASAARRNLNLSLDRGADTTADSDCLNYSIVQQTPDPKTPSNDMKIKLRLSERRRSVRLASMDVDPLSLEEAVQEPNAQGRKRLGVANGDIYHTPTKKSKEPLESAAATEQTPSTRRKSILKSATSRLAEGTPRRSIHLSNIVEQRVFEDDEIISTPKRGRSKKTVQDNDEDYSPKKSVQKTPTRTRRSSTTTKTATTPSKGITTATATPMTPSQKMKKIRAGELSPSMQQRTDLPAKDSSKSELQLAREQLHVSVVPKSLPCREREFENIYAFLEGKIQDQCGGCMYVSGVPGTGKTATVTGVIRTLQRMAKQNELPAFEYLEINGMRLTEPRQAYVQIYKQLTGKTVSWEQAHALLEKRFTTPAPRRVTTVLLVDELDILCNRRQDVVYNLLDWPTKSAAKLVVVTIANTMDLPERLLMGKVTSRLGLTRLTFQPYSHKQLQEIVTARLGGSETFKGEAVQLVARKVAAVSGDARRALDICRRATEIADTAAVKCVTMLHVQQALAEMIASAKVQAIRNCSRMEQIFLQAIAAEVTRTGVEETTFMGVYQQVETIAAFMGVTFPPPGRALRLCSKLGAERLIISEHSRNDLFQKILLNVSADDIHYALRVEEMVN
T10 sequence (Q24168 whole entry, chain 2 of 4): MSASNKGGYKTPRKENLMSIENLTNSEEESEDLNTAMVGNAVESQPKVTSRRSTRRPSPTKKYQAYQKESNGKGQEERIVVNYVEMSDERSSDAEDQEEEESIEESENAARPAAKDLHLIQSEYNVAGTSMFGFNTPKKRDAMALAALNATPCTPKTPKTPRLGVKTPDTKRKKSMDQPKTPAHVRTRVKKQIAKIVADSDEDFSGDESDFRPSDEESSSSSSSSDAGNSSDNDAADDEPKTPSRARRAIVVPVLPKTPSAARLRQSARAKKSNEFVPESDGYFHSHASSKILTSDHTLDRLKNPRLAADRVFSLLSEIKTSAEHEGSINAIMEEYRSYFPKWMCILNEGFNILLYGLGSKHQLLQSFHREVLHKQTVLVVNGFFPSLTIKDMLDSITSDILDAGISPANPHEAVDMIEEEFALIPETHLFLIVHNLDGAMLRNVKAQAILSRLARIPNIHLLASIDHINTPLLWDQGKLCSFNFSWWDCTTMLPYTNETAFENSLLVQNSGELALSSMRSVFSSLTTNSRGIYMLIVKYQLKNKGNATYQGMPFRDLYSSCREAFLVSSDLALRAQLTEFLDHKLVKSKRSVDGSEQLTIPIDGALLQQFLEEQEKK
T10 sequence (Q24169 whole entry, chain 3 of 4): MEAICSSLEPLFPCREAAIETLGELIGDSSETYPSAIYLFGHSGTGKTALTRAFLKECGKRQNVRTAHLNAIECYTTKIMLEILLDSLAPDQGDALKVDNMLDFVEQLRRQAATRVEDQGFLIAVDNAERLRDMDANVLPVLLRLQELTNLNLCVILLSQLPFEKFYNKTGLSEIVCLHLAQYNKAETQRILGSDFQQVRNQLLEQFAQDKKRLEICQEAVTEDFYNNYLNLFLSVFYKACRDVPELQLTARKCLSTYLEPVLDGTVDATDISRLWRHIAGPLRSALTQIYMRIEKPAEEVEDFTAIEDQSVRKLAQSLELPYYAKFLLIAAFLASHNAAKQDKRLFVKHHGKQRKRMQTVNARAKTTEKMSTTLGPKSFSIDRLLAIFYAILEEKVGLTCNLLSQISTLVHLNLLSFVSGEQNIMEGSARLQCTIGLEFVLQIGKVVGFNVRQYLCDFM
T10 sequence (Q9Y1B2 whole entry, chain 4 of 4): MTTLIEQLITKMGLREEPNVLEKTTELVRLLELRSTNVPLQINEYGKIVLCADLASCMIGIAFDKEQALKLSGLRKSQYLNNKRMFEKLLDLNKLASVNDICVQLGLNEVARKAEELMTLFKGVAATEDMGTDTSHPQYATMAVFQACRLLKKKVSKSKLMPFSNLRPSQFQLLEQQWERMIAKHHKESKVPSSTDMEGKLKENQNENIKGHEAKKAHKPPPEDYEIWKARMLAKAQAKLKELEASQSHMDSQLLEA

[2] = test system: AmOrc1 IDR (Acropora millepora); test: fluorescence polarization; settings: about 100 nM or less; EMSA: 50 mM HEPES pH 7.5, 150 mM K-glutamate, 10% glycerol, 1 mM BME, 2 nM DNA, RT 20 min, 1% agarose; FP: same with 150 or 300 mM K-glutamate, 5 mM MgOAc …
[3] = test system: DgOrc1 IDR (Dimorphilus gyrociliatus); test: fluorescence polarization; settings: about 100 nM or less; EMSA: 50 mM HEPES pH 7.5, 150 mM K-glutamate, 10% glycerol, 1 mM BME, 2 nM DNA, RT 20 min, 1% agarose; FP: same with 150 or 300 mM K-glutamate, 5 mM MgOAc …
[4] = target: DmORC delta1IDR holocomplex Orc1:del248-549 (Drosophila melanogaster) (UniProt O16810+Q24168+Q24169+Q9Y1B2); test: fluorescence polarization; settings: EMSA: 50 mM HEPES pH 7.5, 150 mM K-glutamate, 10% glycerol, 1 mM BME, 2 nM DNA, RT 20 min, 1% agarose, FP: same with 150 or 300 mM K-glutamate
Sequence of DmORC delta1IDR holocomplex Orc1:del248-549 (Drosophila melanogaster) (O16810 whole entry, stated change not applied, chain 1 of 4): as the sequence (O16810 whole entry, chain 1 of 4) above
Sequence of DmORC delta1IDR holocomplex Orc1:del248-549 (Drosophila melanogaster) (Q24168 whole entry, stated change not applied, chain 2 of 4): as the sequence (Q24168 whole entry, chain 2 of 4) above
Sequence of DmORC delta1IDR holocomplex Orc1:del248-549 (Drosophila melanogaster) (Q24169 whole entry, stated change not applied, chain 3 of 4): as the sequence (Q24169 whole entry, chain 3 of 4) above
Sequence of DmORC delta1IDR holocomplex Orc1:del248-549 (Drosophila melanogaster) (Q9Y1B2 whole entry, stated change not applied, chain 4 of 4): as the sequence (Q9Y1B2 whole entry, chain 4 of 4) above

[5] = target: T10, DmORC holocomplex (Orc1-6) (Drosophila melanogaster); test: fluorescence polarization; settings: EMSA: 50 mM HEPES pH 7.5, 150 mM K-glutamate, 10% glycerol, 1 mM BME, 2 nM DNA, RT 20 min, 1% agarose; FP: same with 150 or 300 mM K-glutamate, 5 mM MgOAc …; remark: listed apart in the source
[6] = test system: AqOrc1 IDR (Amphimedon queenslandica); test: fluorescence polarization; settings: about 100 nM or less; EMSA: 50 mM HEPES pH 7.5, 150 mM K-glutamate, 10% glycerol, 1 mM BME, 2 nM DNA, RT 20 min, 1% agarose; FP: same with 150 or 300 mM K-glutamate, 5 mM MgOAc …
[7] = test system: MyOrc1 IDR (Mizuhopecten yessoensis); test: fluorescence polarization; settings: about 100 nM or less; EMSA: 50 mM HEPES pH 7.5, 150 mM K-glutamate, 10% glycerol, 1 mM BME, 2 nM DNA, RT 20 min, 1% agarose; FP: same with 150 or 300 mM K-glutamate, 5 mM MgOAc …
DmOrc1 IDR delta2 = target: T1, DmOrc1 IDR delta2; test: EMSA; EMSA: 50 mM HEPES pH 7.5, 150 mM K-glutamate, 10% glycerol, 1 mM BME, 2 nM DNA, RT 20 min, 1% agarose; FP: same with 150 or 300 mM K-glutamate, 5 mM MgOAc, 0 or 1 mM ATP, RT 30 min; settings: protein: recombinant; tags: His6-MBP removed by TEV; blunt (60-bp duplex)
DmOrc1 IDR delta3 = target: T2, DmOrc1 IDR delta3; test: as above; settings: protein: recombinant; tags: His6-MBP removed by TEV; blunt (60-bp duplex)
DmOrc1 IDR delta1 = target: T3, DmOrc1 IDR delta1; test: as above; settings: protein: recombinant; tags: His6-MBP removed by TEV; blunt (60-bp duplex)
DmOrc1 IDR delta5 = target: T4, DmOrc1 IDR delta5; test: as above; settings: protein: recombinant; tags: His6-MBP removed by TEV; blunt (60-bp duplex)
DmOrc1 IDR delta6 = target: T5, DmOrc1 IDR delta6; test: as above; settings: protein: recombinant; tags: His6-MBP removed by TEV; blunt (60-bp duplex)
DmOrc1 IDR delta4 = target: T6, DmOrc1 IDR delta4; test: as above; settings: protein: recombinant; tags: His6-MBP removed by TEV; blunt (60-bp duplex)
DmOrc1 IDR delta BP = target: T7, DmOrc1 IDR delta BP; test: EMSA; text says FITC, legend Cy5; EMSA: 50 mM HEPES pH 7.5, 150 mM K-glutamate, 10% glycerol, 1 mM BME, 2 nM DNA, RT 20 min, 1% agarose; FP: same with 150 or 300 mM K-glutamate, 5 mM MgOAc, 0 or 1 mM ATP, RT 30 min; settings: protein: recombinant; tags: His6-MBP removed by TEV; blunt (60-bp duplex)
DmOrc1 IDR [8] = target: T8, DmOrc1 IDR; test: EMSA; no ATP; text says FITC, legend Cy5; EMSA: 50 mM HEPES pH 7.5, 150 mM K-glutamate, 10% glycerol, 1 mM BME, 2 nM DNA, RT 20 min, 1% agarose; FP: same with 150 or 300 mM K-glutamate, 5 mM MgOAc, 0 or 1 mM ATP, RT 30 min; settings: protein: recombinant; tags: His6-MBP removed by TEV; blunt (60-bp duplex)
DmOrc1 IDR delta P = target: T9, DmOrc1 IDR delta P; test: EMSA; 600 nM; EMSA: 50 mM HEPES pH 7.5, 150 mM K-glutamate, 10% glycerol, 1 mM BME, 2 nM DNA, RT 20 min, 1% agarose; FP: same with 150 or 300 mM K-glutamate, 5 mM MgOAc, 0 or 1 mM ATP, RT 30 min; settings: protein: recombinant; blunt (60-bp duplex)
DmOrc1 IDR [9] = target: T8, DmOrc1 IDR; test: EMSA; unphosphorylated, compared with pOrc1IDR; label not stated; EMSA: 50 mM HEPES pH 7.5, 150 mM K-glutamate, 10% glycerol, 1 mM BME, 2 nM DNA, RT 20 min, 1% agarose; FP: same with 150 or 300 mM K-glutamate, 5 mM MgOAc, 0 or 1 mM ATP, RT 30 min; settings: protein: recombinant; tags: His6-MBP removed by TEV; blunt (60-bp duplex)

Molecule	Kd [1]	Kd [2] [nM]	Kd [3] [nM]	Kd ([4]; 5 mM MgOAc …) [nM]	Kd ([4]; no ATP, 150 mM KGlut, 5 mM MgOAc, severely impaired) [nM]	Kd [5] [nM]	Kd [6] [nM]	Kd [7] [nM]	Kd (DmOrc1 IDR delta2) [nM]	Kd (DmOrc1 IDR delta3) [nM]	Kd (DmOrc1 IDR delta1) [nM]	Kd (DmOrc1 IDR delta5) [nM]	Kd (DmOrc1 IDR delta6) [nM]	Kd (DmOrc1 IDR delta4) [nM]	Kd (DmOrc1 IDR delta BP) [nM]	Kd (DmOrc1 IDR [8]) [nM]	binding result (DmOrc1 IDR delta P)	Kd (DmOrc1 IDR [9]) [nM]
GAAGCTAGACTTAGGTGTCATATTGAACCTACTATGCCGAACTAGTTACGAGCTATAACC (double strand) [FITC-dsDNA 60 bp]	6 nM and 34 nM	100	100	19	> 1000	7	100	100	–	–	–	–	–	–	–	–	–	–
Cy5-dsDNA 60 bp (dsDNA) DNA 1: GAAGCTAGACTTAGGTGTCATATTGAACCTACTATGCCGAACTAGTTACGAGCTATAACC DNA 2: GGTTATAGCTCGTAACTAGTTCGGCATAGTAGGTTCAATATGACACCTAAGTCTAGCTTC	–	–	–	–	–	–	–	–	< 100	< 100	< 100	< 100	< 100	62 ± 26	8 ± 2	15 ± 4	binds	21

Reference: publication PMC11077064, “The origin recognition complex requires chromatin tethering by a hypervariable intrinsically disordered region that is functionally conserved from sponge to man”
